# How the values were obtained:
# H3K9me3 = experiment: H3K9 demethylase activity of KDM4 variants in transfected cells; assay type: cell-based; parameters: key: + indicates active; − indicates inactive; +/− indicates partial acitivty; conditions: KDM4A mutations
# H3K36me3 = experiment: H3K36 demethylase activity of KDM4A variants in transfected cells (immunofluorescence); assay type: cell-based; parameters: key: + indicates active; − indicates inactive; +/− indicates partial acitivty; conditions: KDM4A mutations
Molecule,H3k9 Demethylase Activity (H3K9me3),H3k36 Demethylase Activity (H3K36me3)
2A-G376V: KDM4A mutation (protein) MASESETLNPSARIMTFYPTMEEFRNFSRYIAYIESQGAHRAGLAKVVPPKEWKPRASYDDIDDLVIPAPIQQLVTGQSGLFTQYNIQKKAMTVREFRKIANSDKYCTPRYSEFEELERKYWKNLTFNPPIYGADVNGTLYEKHVDEWNIGRLRTILDLVEKESGITIEGVNTPYLYFGMWKTSFAWHTEDMDLYSINYLHFGEPKSWYSVPPEHGKRLERLAKGFFPGSAQSCEAFLRHKMTLISPLMLKKYGIPFDKVTQEAGEFMITFPYGYHAGFNHGFNCAESTNFATRRWIEYGKQAVLCSCRKDMVKISMDVFVRKFQPERYKLWKAGKDNTVIDHTLPTPEAAEFLKESELPPRAGNEEECPEEDMEVVEDGEEGDLKTSLAKHRIGTKRHRVCLEIPQEVSQSELFPKEDLSSEQYEMTECPAALAPVRPTHSSVRQVEDGLTFPDYSDSTEVKFEELKNVKLEEEDEEEEQAAAALDLSVNPASVGGRLVFSGSKKKSSSSLGSGSSRDSISSDSETSEPLSCRAQGQTGVLTVHSYAKGDGRVTVGEPCTRKKGSAARSFSERELAEVADEYMFSLEENKKSKGRRQPLSKLPRHHPLVLQECVSDDETSEQLTPEEEAEETEAWAKPLSQLWQNRPPNFEAEKEFNETMAQQAPHCAVCMIFQTYHQVEFGGFNQNCGNASDLAPQKQRTKPLIPEMCFTSTGCSTDINLSTPYLEEDGTSILVSCKKCSVRVHASCYGVPPAKASEDWMCSRCSANALEEDCCLCSLRGGALQRANDDRWVHVSCAVAILEARFVNIAERSPVDVSKIPLPRFKLKCIFCKKRRKRTAGCCVQCSHGRCPTAFHVSCAQAAGVMMQPDDWPFVVFITCFRHKIPNLERAKGALQSITAGQKVISKHKNGRFYQCEVVRLTTETFYEVNFDDGSFSDNLYPEDIVSQDCLQFGPPAEGEVVQVRWTDGQVYGAKFVASHPIQMYQVEFEDGSQLVVKRDDVYTLDEELPKRVKSRLSVASDMRFNEIFTEKEVKQEKKRQRVINSRYREDYIEPALYRAIME,+,+
2A-R400Q: KDM4A mutation (protein) MASESETLNPSARIMTFYPTMEEFRNFSRYIAYIESQGAHRAGLAKVVPPKEWKPRASYDDIDDLVIPAPIQQLVTGQSGLFTQYNIQKKAMTVREFRKIANSDKYCTPRYSEFEELERKYWKNLTFNPPIYGADVNGTLYEKHVDEWNIGRLRTILDLVEKESGITIEGVNTPYLYFGMWKTSFAWHTEDMDLYSINYLHFGEPKSWYSVPPEHGKRLERLAKGFFPGSAQSCEAFLRHKMTLISPLMLKKYGIPFDKVTQEAGEFMITFPYGYHAGFNHGFNCAESTNFATRRWIEYGKQAVLCSCRKDMVKISMDVFVRKFQPERYKLWKAGKDNTVIDHTLPTPEAAEFLKESELPPRAGNEEECPEEDMEGVEDGEEGDLKTSLAKHRIGTKRHQVCLEIPQEVSQSELFPKEDLSSEQYEMTECPAALAPVRPTHSSVRQVEDGLTFPDYSDSTEVKFEELKNVKLEEEDEEEEQAAAALDLSVNPASVGGRLVFSGSKKKSSSSLGSGSSRDSISSDSETSEPLSCRAQGQTGVLTVHSYAKGDGRVTVGEPCTRKKGSAARSFSERELAEVADEYMFSLEENKKSKGRRQPLSKLPRHHPLVLQECVSDDETSEQLTPEEEAEETEAWAKPLSQLWQNRPPNFEAEKEFNETMAQQAPHCAVCMIFQTYHQVEFGGFNQNCGNASDLAPQKQRTKPLIPEMCFTSTGCSTDINLSTPYLEEDGTSILVSCKKCSVRVHASCYGVPPAKASEDWMCSRCSANALEEDCCLCSLRGGALQRANDDRWVHVSCAVAILEARFVNIAERSPVDVSKIPLPRFKLKCIFCKKRRKRTAGCCVQCSHGRCPTAFHVSCAQAAGVMMQPDDWPFVVFITCFRHKIPNLERAKGALQSITAGQKVISKHKNGRFYQCEVVRLTTETFYEVNFDDGSFSDNLYPEDIVSQDCLQFGPPAEGEVVQVRWTDGQVYGAKFVASHPIQMYQVEFEDGSQLVVKRDDVYTLDEELPKRVKSRLSVASDMRFNEIFTEKEVKQEKKRQRVINSRYREDYIEPALYRAIME,+,+
2A-E426K: KDM4A mutation (protein) MASESETLNPSARIMTFYPTMEEFRNFSRYIAYIESQGAHRAGLAKVVPPKEWKPRASYDDIDDLVIPAPIQQLVTGQSGLFTQYNIQKKAMTVREFRKIANSDKYCTPRYSEFEELERKYWKNLTFNPPIYGADVNGTLYEKHVDEWNIGRLRTILDLVEKESGITIEGVNTPYLYFGMWKTSFAWHTEDMDLYSINYLHFGEPKSWYSVPPEHGKRLERLAKGFFPGSAQSCEAFLRHKMTLISPLMLKKYGIPFDKVTQEAGEFMITFPYGYHAGFNHGFNCAESTNFATRRWIEYGKQAVLCSCRKDMVKISMDVFVRKFQPERYKLWKAGKDNTVIDHTLPTPEAAEFLKESELPPRAGNEEECPEEDMEGVEDGEEGDLKTSLAKHRIGTKRHRVCLEIPQEVSQSELFPKEDLSSEQYKMTECPAALAPVRPTHSSVRQVEDGLTFPDYSDSTEVKFEELKNVKLEEEDEEEEQAAAALDLSVNPASVGGRLVFSGSKKKSSSSLGSGSSRDSISSDSETSEPLSCRAQGQTGVLTVHSYAKGDGRVTVGEPCTRKKGSAARSFSERELAEVADEYMFSLEENKKSKGRRQPLSKLPRHHPLVLQECVSDDETSEQLTPEEEAEETEAWAKPLSQLWQNRPPNFEAEKEFNETMAQQAPHCAVCMIFQTYHQVEFGGFNQNCGNASDLAPQKQRTKPLIPEMCFTSTGCSTDINLSTPYLEEDGTSILVSCKKCSVRVHASCYGVPPAKASEDWMCSRCSANALEEDCCLCSLRGGALQRANDDRWVHVSCAVAILEARFVNIAERSPVDVSKIPLPRFKLKCIFCKKRRKRTAGCCVQCSHGRCPTAFHVSCAQAAGVMMQPDDWPFVVFITCFRHKIPNLERAKGALQSITAGQKVISKHKNGRFYQCEVVRLTTETFYEVNFDDGSFSDNLYPEDIVSQDCLQFGPPAEGEVVQVRWTDGQVYGAKFVASHPIQMYQVEFEDGSQLVVKRDDVYTLDEELPKRVKSRLSVASDMRFNEIFTEKEVKQEKKRQRVINSRYREDYIEPALYRAIME,+,+
2A-V490M: KDM4A mutation (protein) MASESETLNPSARIMTFYPTMEEFRNFSRYIAYIESQGAHRAGLAKVVPPKEWKPRASYDDIDDLVIPAPIQQLVTGQSGLFTQYNIQKKAMTVREFRKIANSDKYCTPRYSEFEELERKYWKNLTFNPPIYGADVNGTLYEKHVDEWNIGRLRTILDLVEKESGITIEGVNTPYLYFGMWKTSFAWHTEDMDLYSINYLHFGEPKSWYSVPPEHGKRLERLAKGFFPGSAQSCEAFLRHKMTLISPLMLKKYGIPFDKVTQEAGEFMITFPYGYHAGFNHGFNCAESTNFATRRWIEYGKQAVLCSCRKDMVKISMDVFVRKFQPERYKLWKAGKDNTVIDHTLPTPEAAEFLKESELPPRAGNEEECPEEDMEGVEDGEEGDLKTSLAKHRIGTKRHRVCLEIPQEVSQSELFPKEDLSSEQYEMTECPAALAPVRPTHSSVRQVEDGLTFPDYSDSTEVKFEELKNVKLEEEDEEEEQAAAALDLSMNPASVGGRLVFSGSKKKSSSSLGSGSSRDSISSDSETSEPLSCRAQGQTGVLTVHSYAKGDGRVTVGEPCTRKKGSAARSFSERELAEVADEYMFSLEENKKSKGRRQPLSKLPRHHPLVLQECVSDDETSEQLTPEEEAEETEAWAKPLSQLWQNRPPNFEAEKEFNETMAQQAPHCAVCMIFQTYHQVEFGGFNQNCGNASDLAPQKQRTKPLIPEMCFTSTGCSTDINLSTPYLEEDGTSILVSCKKCSVRVHASCYGVPPAKASEDWMCSRCSANALEEDCCLCSLRGGALQRANDDRWVHVSCAVAILEARFVNIAERSPVDVSKIPLPRFKLKCIFCKKRRKRTAGCCVQCSHGRCPTAFHVSCAQAAGVMMQPDDWPFVVFITCFRHKIPNLERAKGALQSITAGQKVISKHKNGRFYQCEVVRLTTETFYEVNFDDGSFSDNLYPEDIVSQDCLQFGPPAEGEVVQVRWTDGQVYGAKFVASHPIQMYQVEFEDGSQLVVKRDDVYTLDEELPKRVKSRLSVASDMRFNEIFTEKEVKQEKKRQRVINSRYREDYIEPALYRAIME,+,+

# From patent US20160113911A1, “METHODS AND COMPOSITIONS FOR THE TREATMENT OF CANCER” (THE GENERAL HOSPITAL CORPORATION, priority 2013, published 2016)
